Earlier results on one substance are cited in paper PMC4465046.

The series concerns the target HIV-1 protease (Human immunodeficiency virus 1) (UniProt O93215).

HIV-1 protease (from UniProt O93215): the Kd (usually a measure of binding affinity in units of concentration) is 6.8 nM.
